± gives the standard deviation of the averaged measurements.
These sequences were tested on Saccharomyces cerevisiae (assay: protein stability index of tFT-peptide fusion (C-terminal peptide) (PSI (0-1 scale)); higher = more stable (slower turnover)). Settings: genetic background: wild type; temperature: 30 C.
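Note: PSI is a weighted mean of sequencing reads over stability bins, variants kept only with over 10 reads, mCherry proximal and sfGFP distal, peptide attached via GGGS linker.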

Sequence | protein stability index
SATWQLPGYFLI | 0.681 ± 0.04
SCFCNFFRFCCI | 0.637 ± 0.029
SCFFFSWIRGFC | 0.598 ± 0.032
SCFRTLPGRWPF | 0.793 ± 0.022
SCLSLSGLPSPL | 0.677 ± 0.062
SCSGTIGVYENP | 0.684 ± 0.024
SCSVAIFLLSSP | 0.6848 ± 0.0025
SCTPPLPFFTSF | 0.704 ± 0.028
SCVSDAKMGGLG | 0.655 ± 0.084
SCVWVPGCGPSR | 0.679 ± 0.0072
SDDGIRLLNQSF | 0.59 ± 0.095
SDVHGLSLSDVS | 0.632 ± 0.085
SEAGSVMPIGLV | 0.642 ± 0.082
SEIKKNKLTVMK | 0.677 ± 0.016
SEPPPPTPPPLP | 0.679 ± 0.18
SERKRMQRRVVY | 0.655 ± 0.021
SERVCHESCLVG | 0.68 ± 0.047
SESKMRKVEPKM | 0.7459 ± 0.00085
SEVGLSFGLVSF | 0.719 ± 0.032
SEYHGRAQKTGP | 0.744 ± 0.034
SFAHIVSLPVSM | 0.657 ± 0.037
SFAQANRYLTSL | 0.699 ± 0.012
SFATPCCYPLHF | 0.713 ± 0.037

Sequence | protein stability index
SFCACDRYRIGV | 0.727 ± 0.038
SFGGRMSVPTCC | 0.594 ± 0.035
SFGSAANSRAYI | 0.749 ± 0.042
SFITFGGWLGGM | 0.705 ± 0.14
SFLGLDDEICLR | 0.716 ± 0.044
SFLISPFSLFSS | 0.771 ± 0.051
SFLPHALPATAS | 0.682 ± 0.07
SFPFSCSSSVTH | 0.72 ± 0.055
SFPPVSSLSFSP | 0.707 ± 0.048
SFSAFRCDPAEM | 0.676 ± 0.011
SFSLPLSPPSFF | 0.721 ± 0.058
SFSPSVLSREVS | 0.66 ± 0.066
SFSQTFSSLSSP | 0.702 ± 0.054
SFVGPFCLTLSI | 0.596 ± 0.092
SFVQLNGAVDLA | 0.717 ± 0.031
SGAADGDADRHP | 0.721 ± 0.029
SGAGGGGWWGGV | 0.731 ± 0.011
SGAGVNWGVGGG | 0.728 ± 0.019
SGATVGVLCFAS | 0.58 ± 0.006
SGCCCGSDVYIG | 0.6905 ± 0.0055
SGCVLCLCCYMV | 0.666 ± 0.015
SGCWREVEVGFG | 0.737 ± 0.059
SGFLAKNIKQLC | 0.578 ± 0.042

Sequence | protein stability index
SGFQAPGSVASE | 0.623 ± 0.014
SGFQIRVPVFMG | 0.619 ± 0.0095
SGFVQRLHVICN | 0.5706 ± 0.0011
SGGCVLRLWGFV | 0.6853 ± 0.0019
SGHRLGRGQGQR | 0.67 ± 0.02
SGIYQTTSYIKI | 0.7505 ± 0.0029
SGLFPLSPKPCP | 0.619 ± 0.11
SGLGRETHGSYS | 0.66 ± 0.012
SGMGGCRKGFEG | 0.717 ± 0.011
SGPRVCPGMHWQ | 0.651 ± 0.013
SGPYPVGKQRSE | 0.649 ± 0.05
SGRGWILCAYRV | 0.632 ± 0.024
SGRSGECEGSWD | 0.662 ± 0.13
SGRTQPRGKHNA | 0.683 ± 0.016
SGRVELGVVGGG | 0.695 ± 0.04
SGSCPSSTSATT | 0.732 ± 0.057
SGSGVLVGCLGS | 0.68 ± 0.038
SGSVALWVCSVV | 0.5878 ± 0.0056
SGTVRSTPPHPP | 0.664 ± 0.0072
SGVAAPVRPRSV | 0.854 ± 0.11
SGVAYAVYLVFR | 0.472 ± 0.047
SGVFARIKRTVV | 0.489 ± 0.072
SGVGCLVFGRGF | 0.645 ± 0.046

Sequence | protein stability index
SGVGPGNPPRPG | 0.689 ± 0.011
SGVPGGSVGVPG | 0.661 ± 0.028
SGVVSASFVVLD | 0.677 ± 0.01
SGWEVAGGCDNK | 0.692 ± 0.0021
SGWRCSVAVLQV | 0.592 ± 0.033
SGYYTRVFICEV | 0.618 ± 0.025
SHESRPNLGCIY | 0.678 ± 0.026
SHFPPPSTPPVL | 0.713 ± 0.015
SHLPPRSPPVPS | 0.6825 ± 0.0051
SHPPPPPSPPPR | 0.6922 ± 0.0051
SICSIRPFSDLP | 0.683 ± 0.015
SIGYDLFTKDKI | 0.789 ± 0.13
SIIRYNKSATIT | 0.667 ± 0.047
SIIYKRKKGRRW | 0.714 ± 0.039
SILTALGEVLLV | 0.665 ± 0.013
SILVAGVSAGRC | 0.669 ± 0.021
SIMSVLPYCSCS | 0.708 ± 0.06
SIQCHNTKKFYE | 0.715 ± 0.032
SISSVFCTGRCH | 0.721 ± 0.19
SIVAWGWPAASE | 0.85 ± 0.19
SIVIGGSWGRSW | 0.711 ± 0.052
SIVSQGISDLGR | 0.656 ± 0.046
SIYIEKERKMIV | 0.686 ± 0.025

Sequence | protein stability index
SKGECYSETDVA | 0.684 ± 0.018
SKKNKPAQRRPH | 0.729 ± 0.026
SKKRKEKRTKEW | 0.63 ± 0.083
SKLEREKQNKGY | 0.634 ± 0.021
SKLRKGNSIDDR | 0.625 ± 0.016
SKREYGKEYKRK | 0.656 ± 0.0084
SKSCIVSNVLVY | 0.511 ± 0.014
SKTIRDTYIFKR | 0.816 ± 0.15
SLASCLLRPPLY | 0.693 ± 0.021
SLASYFFHVSHS | 0.7127 ± 0.0064
SLCLPFPSSPPP | 0.677 ± 0.0083
SLDGTVHARRAH | 0.695 ± 0.07
SLDISDCGFCLH | 0.697 ± 0.018
SLDRASPPTSVA | 0.625 ± 0.0007
SLFFGDCNLVRV | 0.7166 ± 0.0036
SLFPPAPPPPRS | 0.641 ± 0.098
SLFRSSHPPRPP | 0.605 ± 0.034
SLFSFSLSLCSP | 0.653 ± 0.06
SLFYSPSSVFSF | 0.866 ± 0.13
SLGCLLENRRGL | 0.641 ± 0.015
SLGGFLPPESFV | 0.708 ± 0.049
SLGSRFWGPYPF | 0.679 ± 0.029
SLGVPVVWGLWI | 0.744 ± 0.032

Sequence | protein stability index
SLILSAGLGFFF | 0.719 ± 0.095
SLKELSYKGTLR | 0.65 ± 0.038
SLLHGVFFWVLT | 0.572 ± 0.013
SLLPLSTPPASP | 0.624 ± 0.0079
SLLRPPHASFSS | 0.688 ± 0.044
SLLSLPPSRAPS | 0.666 ± 0.022
SLLTLVIPTLFS | 0.665 ± 0.0048
SLPDSLPRPPPS | 0.656 ± 0.072
SLPFSPSFLSSF | 0.67 ± 0.015
SLPLIPCPSPPL | 0.751 ± 0.065
SLPLPNTPVPPI | 0.723 ± 0.081
SLPPHPAPPPAA | 0.757 ± 0.014
SLPPLDTPPSSC | 0.73 ± 0.14
SLPPPSSPPPPL | 0.692 ± 0.089
SLPPSRSPSPTL | 0.665 ± 0.13
SLPRPPRPPQSH | 0.677 ± 0.038
SLQPRRGQPVTG | 0.711 ± 0.0078
SLQRLFGRGGMV | 0.643 ± 0.1
SLRICGAFPRTF | 0.705 ± 0.0092
SLRLFVPVYPPP | 0.576 ± 0.078
SLRRPPPRSRNG | 0.654 ± 0.048
SLSIFTSFLVLF | 0.598 ± 0.021
SLSLFYFRFFPF | 0.661 ± 0.05

Sequence | protein stability index
SLSPPSSPLPPP | 0.703 ± 0.053
SLSRSFCRAHRS | 0.722 ± 0.047
SLSVPPRPSSPP | 0.624 ± 0.017
SLVAFAKMANFV | 0.633 ± 0.044
SLWLRLAIPSRY | 0.68862 ± 0.00061
SMASQLSQRGSD | 0.641 ± 0.076
SMFRNSWRKNKS | 0.602 ± 0.012
SMRFLGIKLKKY | 0.648 ± 0.023
SMSEYGLLTMLE | 0.669 ± 0.011
SNERWCGCGLLW | 0.764 ± 0.0097
SNIKEYKSINGR | 0.666 ± 0.02
SNKDLELVSTVC | 0.658 ± 0.002
SNLPVSSLPSLS | 0.6818 ± 0.0048
SNLRSPFPSLPL | 0.714 ± 0.022
SNPGGYCPQGVP | 0.731 ± 0.024
SNRRSSRSLYYM | 0.698 ± 0.033
SNVRSRGAGISM | 0.729 ± 0.087
SPAASPVPLHPR | 0.603 ± 0.15
SPAGGPRGGEGV | 0.678 ± 0.075
SPAGGPSGGEGV | 0.674 ± 0.062
SPARPPFPPPPL | 0.72 ± 0.029
SPASIVPTLELA | 0.638 ± 0.024

— the supplement of paper PMC10724198
